Series [1] addresses FseA (wild type, bacterial two-hybrid). The series is described as follows: bacterial two-hybrid.
Series [2] concerns the target FseA_(1–55) (Mesorhizobium japonicum R7A). As to the kind of experiment: two-hybrid; Bacteriomatch II bacterial two-hybrid in E. coli; growth on selective medium with 5 mM 3-amino-1,2,4-triazole; strength as CFU/ml on selective against non-selective medium.
Series [3] addresses QseM (wild type, bacterial two-hybrid). The series is described as follows: bacterial two-hybrid.
For series [4], the system named is 6H-MBP-FseA (Mesorhizobium japonicum R7A (ICEMlSymR7A)?). As to the kind of experiment: EMSA. The note with it: dimer concentration 4-130 nM; Hill slope fit, n=3; FseA EMSA: 10 mM Na phosphate pH 6.35, 220 mM NaCl, 6% glycerol, 1 mM DTT, 0.01 ug/ul poly(dI.dC), 0.1 ug/ul herring sperm DNA, 0.1-0.19 ug/ul BSA, 5 nM probe ….
For series [5], the target named is 6H-MBP-FseA (Mesorhizobium japonicum R7A). The series is described as follows: SEC; HiLoad 16/600 Superdex 200; 50 mM Na2HPO4/NaH2PO4 pH 6.35, 10% glycerol, 500 mM NaCl; apparent mass from the elution volume.

Take “QseM (wild type, bacterial two-hybrid) D31A”: the percent of parent (% of wild-type QseM) in series [1] was < 10.

The substance “QseM (wild type, bacterial two-hybrid) (natural protein)” returned an interaction strength relative to wild-type FseA in series [2] of 40%.

“QseM (wild type, bacterial two-hybrid) R57A”: in series [1], the percent of parent (% of wild-type QseM) was > 90.

Take “FseA (wild type, bacterial two-hybrid) R219A”: in series [3], the percent of parent (% of wild-type FseA) is > 90.

Regarding “FseA (wild type, bacterial two-hybrid) R36A”, the percent of parent (% of wild-type FseA) in series [3] was > 90.

“FseA (wild type, bacterial two-hybrid) R37A”: the percent of parent (% of wild-type FseA) in series [3] was < 10.

The substance PrdfS FseA-box probe gave a Kd in series [4] of 30 nM.

Turning to “QseM (wild type, bacterial two-hybrid) R28A”, in series [1], the percent of parent (% of wild-type QseM) was > 90.

As to 6H-MBP-FseA (natural protein), in series [5], the stoichiometry N is 2.

Regarding “QseM (wild type, bacterial two-hybrid) L29A”, in series [1], the percent of parent (% of wild-type QseM) is < 10.

On to “QseM (wild type, bacterial two-hybrid) R68A”, for which, in series [1], the percent of parent (% of wild-type QseM) is < 10.

As for “QseM (wild type, bacterial two-hybrid) W71A”, in series [1], the percent of parent (% of wild-type QseM) was < 10.

Take “FseA (wild type, bacterial two-hybrid) G214”: in series [3], the percent of parent (% of wild-type FseA) is > 90.

“FseA (wild type, bacterial two-hybrid) D210A”: the percent of parent (% of wild-type FseA) in series [3] was > 90.

As for “FseA (wild type, bacterial two-hybrid) W32A”, in series [3], the percent of parent (% of wild-type FseA) was > 90.

As to “QseM (wild type, bacterial two-hybrid) E56A”, the percent of parent (% of wild-type QseM) in series [1] is > 90.

As to “QseM (wild type, bacterial two-hybrid) H22A”, the percent of parent (% of wild-type QseM) in series [1] was > 90.
